In paper doi:10.1101/788646 one finds stoichiometry N data, which are given here for 1 substance.

This experiment concerns the target SlCGH1, choloylglycine hydrolase homolog Shew_0681 from Shewanella loihica PV-4 (Shewanella loihica PV-4). Nature of the experiment: SEC + other: MALDI-TOF-MS.

What is called stoichiometry N is the number of molecules, sites or subunits per partner or assembly. “SlCGH1, choloylglycine hydrolase homolog Shew_0681 from Shewanella loihica PV-4 (enzyme)”: the stoichiometry N was 2.
